Results as given in patent US20160137740A1 (AstraZeneca / MedImmune, published 2016).

Columns and labels:
Human OX40 [1] = target: T1, Human OX40 (human, UniProt P43489 29-277); assay: cell-based or functional assay
T1 sequence: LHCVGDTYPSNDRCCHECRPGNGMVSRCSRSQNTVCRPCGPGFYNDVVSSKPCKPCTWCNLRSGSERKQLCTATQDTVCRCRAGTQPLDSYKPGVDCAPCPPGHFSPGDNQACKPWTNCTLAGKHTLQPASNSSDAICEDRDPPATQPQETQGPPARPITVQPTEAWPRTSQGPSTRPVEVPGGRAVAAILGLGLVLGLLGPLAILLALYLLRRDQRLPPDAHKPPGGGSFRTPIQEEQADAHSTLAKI

Rhesus monkey OX40 = target: T2, Rhesus monkey OX40 (rhesus monkey); assay: flow cytometry, equilibrium binding to activated primary rhesus CD4+ T cells; mean of 2 experiments (StdErr)
T2 construct: also called rhesus macaque OX40

[2] = target: T3, Recombinant human TNFRSF1β (TNFRII) (human, UniProt P20333 23-257); assay: ELISA, plate coated with a dilution series of the recombinant TNFRSF protein [panel B]
T3 construct: Plate-adsorbed antigen of the ELISA; also called TNFR2; TNFRSF1B
T3 sequence (looked up): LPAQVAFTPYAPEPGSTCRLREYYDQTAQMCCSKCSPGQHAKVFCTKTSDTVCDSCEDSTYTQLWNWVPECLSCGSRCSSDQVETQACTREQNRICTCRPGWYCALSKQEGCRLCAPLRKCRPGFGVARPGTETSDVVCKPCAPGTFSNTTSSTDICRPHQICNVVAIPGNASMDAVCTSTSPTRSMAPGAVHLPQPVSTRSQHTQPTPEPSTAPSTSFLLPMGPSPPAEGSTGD
Procedure: (§1) An eight point, two-fold dilution series of each recombinant human TNFRSF protein was prepared after dilution of stock proteins to 5 μg/mL in PBS. Subsequently, 50 μL of each antigen dilution was transferred in duplicate to wells of a Nunc 96-well MaxiSorp flat bottom plate, and incubated overnight at 4° C. to adsorb proteins to the plate. Afterwards, plates were washed three times with PBS in a BioTek® plate washer to remove unbound protein. Anti OX40 mAb29, 9B12, and control antibodies were diluted in PBS to a final concentration of 10 μg/mL, and 50 μL of mAb were added to each well and incubated at room temperature for one hour to bind mAb to plate-bound protein. Thereafter, wells were washed with PBS/Tween-20 0.1% (volume/volume) using a BioTek® plate washer. HRP conjugated goat anti-human or goat anti-mouse secondary antibodies at 10 μg/mL was added to each well and incubated at room temperature for 1 hour. After three washes in PBS/Tween-20 0.1%, 50 μL of TMB substrate was added to each well and incubated at room temperature for 5 minutes to develop the colorimetric product. Reactions were stopped by adding 50 μL of 0.5 molar H₂SO₄ to wells, and plates read immediately at 450 nm using an Envision C plate reader for detection of the colorimetric product.

[3] = target: T4, Recombinant human TNFRSF6 (FAS) (human, UniProt P25445 26-173); assay: as above
T4 construct: Plate-adsorbed antigen of the ELISA
T4 sequence (looked up): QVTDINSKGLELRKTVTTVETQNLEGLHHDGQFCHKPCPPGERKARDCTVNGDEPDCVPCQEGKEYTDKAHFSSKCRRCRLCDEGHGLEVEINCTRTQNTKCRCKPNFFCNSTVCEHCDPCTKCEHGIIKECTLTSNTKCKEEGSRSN
Procedure: as §1

[4] = target: T5, Recombinant human TNFRSF11B (OPG) (human, UniProt O00300 22-401, limits assumed); assay: as above
T5 construct: Plate-adsorbed antigen of the ELISA; also called osteoprotegerin
T5 sequence (looked up): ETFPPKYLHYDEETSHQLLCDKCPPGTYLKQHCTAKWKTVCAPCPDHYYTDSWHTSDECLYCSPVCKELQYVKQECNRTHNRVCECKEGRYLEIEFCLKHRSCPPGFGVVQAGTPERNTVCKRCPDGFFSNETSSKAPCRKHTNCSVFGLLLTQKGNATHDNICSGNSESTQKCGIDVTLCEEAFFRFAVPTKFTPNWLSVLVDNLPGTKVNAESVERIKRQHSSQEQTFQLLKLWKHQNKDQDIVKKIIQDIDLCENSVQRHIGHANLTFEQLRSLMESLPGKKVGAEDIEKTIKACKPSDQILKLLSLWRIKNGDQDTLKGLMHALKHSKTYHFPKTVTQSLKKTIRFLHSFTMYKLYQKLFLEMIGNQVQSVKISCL
Procedure: as §1

[5] = target: T6, Recombinant human TNFRSF3 (LTβR) (human, UniProt P36941 28-227, limits assumed); assay: as above
T6 construct: Plate-adsorbed antigen of the ELISA
T6 sequence (P36941 28-227 limits assumed): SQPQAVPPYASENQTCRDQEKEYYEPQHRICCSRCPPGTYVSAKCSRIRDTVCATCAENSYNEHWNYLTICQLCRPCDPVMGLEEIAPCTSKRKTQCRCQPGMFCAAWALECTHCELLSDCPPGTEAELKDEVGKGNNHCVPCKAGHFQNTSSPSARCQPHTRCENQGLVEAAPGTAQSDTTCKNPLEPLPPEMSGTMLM
Procedure: as §1

[6] = target: T7, Recombinant human TNFRSF18 (GITR) (human, UniProt Q9Y5U5 26-162, limits assumed); assay: as above
T7 construct: Plate-adsorbed antigen of the ELISA
T7 sequence (looked up): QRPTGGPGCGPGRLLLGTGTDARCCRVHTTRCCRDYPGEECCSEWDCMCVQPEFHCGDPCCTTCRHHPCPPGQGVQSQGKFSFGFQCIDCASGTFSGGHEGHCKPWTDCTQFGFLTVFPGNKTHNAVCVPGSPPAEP
Procedure: as §1

[7] = target: T8, Recombinant human TNFRSF5 (CD40) (human, UniProt P25942 21-193); assay: as above
T8 construct: Plate-adsorbed antigen of the ELISA
T8 sequence (P25942 21-193 limits assumed): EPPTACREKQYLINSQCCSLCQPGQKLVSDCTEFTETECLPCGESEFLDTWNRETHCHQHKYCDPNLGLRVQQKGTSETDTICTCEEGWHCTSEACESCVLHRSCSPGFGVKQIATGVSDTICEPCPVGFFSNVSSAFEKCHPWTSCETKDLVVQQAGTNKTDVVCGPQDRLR
Procedure: as §1

Human OX40 [8] = target: T1, Human OX40; assay: cell-based or functional assay; remark: listed apart in the source
[9] = target: T9, KO_CRD3 (human OX40 aa 108 to 146 replaced with the mouse counterparts) (human; mouse, UniProt P43489 29-277); assay: flow cytometry, transfected 293F cells, column KO_CRD3
T9 construct: Chimeric variant with a transmembrane domain, transient on 293F cells
T9 chain: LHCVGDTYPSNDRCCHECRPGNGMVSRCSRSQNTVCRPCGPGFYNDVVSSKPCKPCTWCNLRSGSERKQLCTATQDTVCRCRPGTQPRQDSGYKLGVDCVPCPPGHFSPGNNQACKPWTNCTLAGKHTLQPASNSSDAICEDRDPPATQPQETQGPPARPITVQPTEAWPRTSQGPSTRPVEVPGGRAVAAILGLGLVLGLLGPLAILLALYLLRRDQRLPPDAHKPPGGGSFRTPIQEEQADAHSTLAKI

B1: 9B12 (antibody, mouse IgG1, V domains shown)
VH: EVQLQESGPSLVKPSQTLSLTCSVTGDSFTSGYWNWIRKFPGNRLEYMGYISYNGITYHNPSLKSRISITRDTSKNHYYLQLNSVTTEDTATYFCARYRYDYDGGHAMDYWGQGTLVTVSS
VL: DIQMTQTTSSLSASLGDRVTISCRASQDISNYLNWYQQKPDGTVKLLIYYTSKLHSGVPSRFSGSGSRTDYSLTITDLDQEDIATYFCQQGSALPWTFGQGTKVEIKR
notes: mouse IgG1 kappa; also called murine mAb 9B12; mouse anti-human OX40 IgG1κ monoclonal antibody
EC50, IL10 release, donor 367 (Human OX40 [1]): 0.198 nM
EC50, IL10 release, donor 645 (Human OX40 [1]): 1.22 nM
EC50, IL10 release, donor 651 (Human OX40 [1]): 0.796 nM
Kd (Rhesus monkey OX40): 0.713 nM
binding result [2]: no binding
binding result [3]: no binding
binding result [4]: no binding
binding result [5]: no binding
binding result [6]: no binding
binding result [7]: no binding
EC50, IFNγ release, donor 645 (Human OX40 [8]): 2.38 nM
EC50, IFNγ release, donor 651 (Human OX40 [8]): 0.758 nM
binding result [9]: no binding
